Experimental data as given in article PMC5648539.

Target: FLAG-tagged human CXCR4, wild type (human) (UniProt P61073)
Sequence (P61073 whole entry): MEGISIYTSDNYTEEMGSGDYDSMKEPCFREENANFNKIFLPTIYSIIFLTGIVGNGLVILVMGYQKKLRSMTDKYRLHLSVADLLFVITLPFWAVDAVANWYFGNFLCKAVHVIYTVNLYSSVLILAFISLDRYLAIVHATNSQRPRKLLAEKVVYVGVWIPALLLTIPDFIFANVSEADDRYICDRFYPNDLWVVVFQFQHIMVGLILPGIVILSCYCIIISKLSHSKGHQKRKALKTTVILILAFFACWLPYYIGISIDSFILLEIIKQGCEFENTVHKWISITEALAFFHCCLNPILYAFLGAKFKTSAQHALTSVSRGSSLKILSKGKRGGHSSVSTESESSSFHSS

Row | Ca2+ flux dose response (printed as Kd) | Ca2+ flux response (potency) | Substance
1 | 21 nM |  | CXCL12 with Asn33 mutated to glutamic acid (from UniProt P48061-2 22-89) (ligand)
2 |  | 95 nM | CXCL12(R12A) (from UniProt P48061-2 22-89) (ligand)
3 |  | 110 nM | CXCL12(R8A) (from UniProt P48061-2 22-89) (ligand)
